Test results published in patent publication US10314894B2, “Treatment of cardio-renal disease using PCSK6” (THE CLEVELAND CLINIC FOUNDATION, priority 2014, dated 2019).

Assays:
corin WT = biological target: T1, corin WT (Homo sapiens, UniProt Q9Y5Q5); experiment: PCSK6-mediated corin activation in HEK293 cells, corin WT; assay type: cell-based; conditions: Western
T1 construct: expressed in transfected cells; host or cells: HEK293
T1 sequence (Q9Y5Q5 1-1042): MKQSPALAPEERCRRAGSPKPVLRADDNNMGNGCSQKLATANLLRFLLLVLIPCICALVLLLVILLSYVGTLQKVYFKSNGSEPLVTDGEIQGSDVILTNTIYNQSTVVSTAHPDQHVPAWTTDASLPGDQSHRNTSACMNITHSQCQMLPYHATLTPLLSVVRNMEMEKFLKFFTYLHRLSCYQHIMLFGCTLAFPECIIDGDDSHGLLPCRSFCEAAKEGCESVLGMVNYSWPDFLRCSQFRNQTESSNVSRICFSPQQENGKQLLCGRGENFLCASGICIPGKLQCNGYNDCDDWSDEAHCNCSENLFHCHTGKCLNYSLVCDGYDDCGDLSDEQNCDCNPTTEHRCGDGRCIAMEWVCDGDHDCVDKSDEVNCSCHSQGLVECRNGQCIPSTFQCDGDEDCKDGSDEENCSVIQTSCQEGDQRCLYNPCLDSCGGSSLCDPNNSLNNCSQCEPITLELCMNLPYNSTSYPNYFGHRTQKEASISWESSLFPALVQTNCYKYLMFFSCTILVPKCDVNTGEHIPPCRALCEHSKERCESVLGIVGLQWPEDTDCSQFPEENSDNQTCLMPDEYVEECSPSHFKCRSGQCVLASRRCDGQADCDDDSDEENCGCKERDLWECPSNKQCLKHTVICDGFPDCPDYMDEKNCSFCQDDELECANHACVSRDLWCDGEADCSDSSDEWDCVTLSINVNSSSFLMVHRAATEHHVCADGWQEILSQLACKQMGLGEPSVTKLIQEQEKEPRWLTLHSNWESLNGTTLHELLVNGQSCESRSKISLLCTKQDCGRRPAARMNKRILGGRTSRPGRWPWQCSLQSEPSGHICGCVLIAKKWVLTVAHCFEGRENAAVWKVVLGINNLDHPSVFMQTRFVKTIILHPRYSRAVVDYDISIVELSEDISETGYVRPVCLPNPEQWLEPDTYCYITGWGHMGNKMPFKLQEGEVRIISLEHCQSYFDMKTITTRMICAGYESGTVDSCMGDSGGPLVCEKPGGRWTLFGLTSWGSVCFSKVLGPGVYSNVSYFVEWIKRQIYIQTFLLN
Excerpt: (§1) Plasmids expressing human corin WT and mutants R801A, S985A, T555I, Q568P, T555I/Q568P, K317E, S472G and R539C were reported previously. Dong, N. et al., J Biol Chem 289, 17909-17916 (2014); Knappe et al., J Biol Chem 278, 52363-52370 (2003); Wu et al., J Biol Chem 277, 16900-16905. (2002). Plasmids expressing human PCSK1-9 were made by cloning respective cDNAs into pcNDA3.1 vector. Recombinant corin and PCSK proteins encoded by these plasmids contained a C-terminal V5 or flag tag for protein detection in Western blotting.
(§2) HEK293 and HL-1 cells were transfected with corin or PCSK6 expression plasmids. After 48-72 h, cells were lysed in a buffer containing 25 mM Tris-HCl, pH 7.4, 150 mM NaCl, 1 mM EDTA, 1% (v/v) NP-40, and 1% (v/v) protease inhibitor cocktail. Recombinant corin and PCSK6 proteins were immunoprecipitated with an anti-V5 or anti-flag antibody. Western blotting was carried out to analyze corin expression and activation or PCSK6 expression with or without reducing agents. Percentage of corin activation (corin-p vs. corin fragments) was quantified by densitometric analysis of Western blots.

corin mutant R539C = biological target: T2, corin mutant R539C (Homo sapiens, UniProt Q9Y5Q5, R539C); experiment: PCSK6-mediated corin activation in HEK293 cells, corin mutant R539C; assay type: cell-based; conditions: Western, densitometry
T2 construct: expressed in transfected cells; host or cells: HEK293
T2 sequence (Q9Y5Q5 1-1042 R539C): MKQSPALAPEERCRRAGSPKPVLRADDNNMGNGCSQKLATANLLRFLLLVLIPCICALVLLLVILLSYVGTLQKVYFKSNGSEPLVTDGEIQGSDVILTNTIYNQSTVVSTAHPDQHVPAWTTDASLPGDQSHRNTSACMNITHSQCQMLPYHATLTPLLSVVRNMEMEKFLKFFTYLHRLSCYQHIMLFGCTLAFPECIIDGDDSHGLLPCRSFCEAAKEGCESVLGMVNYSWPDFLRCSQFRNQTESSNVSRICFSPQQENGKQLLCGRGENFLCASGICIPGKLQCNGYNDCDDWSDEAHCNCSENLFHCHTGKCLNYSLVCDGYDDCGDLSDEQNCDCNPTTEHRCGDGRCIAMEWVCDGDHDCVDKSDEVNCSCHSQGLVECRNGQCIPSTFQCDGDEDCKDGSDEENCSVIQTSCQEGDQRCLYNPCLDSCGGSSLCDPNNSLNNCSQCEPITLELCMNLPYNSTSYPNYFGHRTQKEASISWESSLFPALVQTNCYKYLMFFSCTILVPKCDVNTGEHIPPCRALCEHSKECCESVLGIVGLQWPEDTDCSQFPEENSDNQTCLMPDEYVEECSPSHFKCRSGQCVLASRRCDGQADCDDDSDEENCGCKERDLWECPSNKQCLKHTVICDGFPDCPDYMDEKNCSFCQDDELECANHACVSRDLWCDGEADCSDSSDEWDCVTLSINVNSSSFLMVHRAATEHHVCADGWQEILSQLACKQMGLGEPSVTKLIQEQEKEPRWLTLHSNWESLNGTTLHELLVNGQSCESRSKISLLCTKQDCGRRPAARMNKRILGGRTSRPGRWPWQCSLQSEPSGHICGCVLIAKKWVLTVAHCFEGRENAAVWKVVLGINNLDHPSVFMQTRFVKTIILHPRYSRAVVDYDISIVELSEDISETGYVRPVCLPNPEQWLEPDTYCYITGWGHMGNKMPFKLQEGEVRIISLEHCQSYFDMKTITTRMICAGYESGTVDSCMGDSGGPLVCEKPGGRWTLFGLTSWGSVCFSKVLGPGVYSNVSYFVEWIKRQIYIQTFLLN
Excerpt: as §1, §2

PCSK6-mediated activation cleavage (corin WT): detected
reduction in PCSK6-mediated corin activation compared with WT corin (corin mutant R539C): 62%
B1: proprotein convertase subtilisin/kexin-6 (protein, listed as Homo sapiens)
chain: MPPRAPPAPGPRPPPRAAAATDTAAGAGGAGGAGGAGGPGFRPLAPRPWRWLLLLALPAACSAPPPRPVYTNHWAVQVLGGPAEADRVAAAHGYLNLGQIGNLEDYYHFYHSKTFKRSTLSSRGPHTFLRMDPQVKWLQQQEVKRRVKRQVRSDPQALYFNDPIWSNMWYLHCGDKNSRCRSEMNVQAAWKRGYTGKNVVVTILDDGIERNHPDLAPNYDSYASYDVNGNDYDPSPRYDASNENKHGTRCAGEVAASANNSYCIVGIAYNAKIGGIRMLDGDVTDVVEAKSLGIRPNYIDIYSASWGPDDDGKTVDGPGRLAKQAFEYGIKKGRQGLGSIFVWASGNGGREGDYCSCDGYTNSIYTISVSSATENGYKPWYLEECASTLATTYSSGAFYERKIVTTDLRQRCTDGHTGTSVSAPMVAGIIALALEANSQLTWRDVQHLLVKTSRPAHLKASDWKVNGAGHKVSHFYGFGLVDAEALVVEAKKWTAVPSQHMCVAASDKRPRSIPLVQVLRTTALTSACAEHSDQRVVYLEHVVVRTSISHPRRGDLQIYLVSPSGTKSQLLAKRLLDLSNEGFTNWEFMTVHCWGEKAEGQWTLEIQDLPSQVRNPEKQGKLKEWSLILYGTAEHPYHTFSAHQSRSRMLELSAPELEPPKAALSPSQVEVPEDEEDYTAQSTPGSANILQTSVCHPECGDKGCDGPNADQCLNCVHFSLGSVKTSRKCVSVCPLGYFGDTAARRCRRCHKGCETCSSRAATQCLSCRRGFYHHQEMNTCVTLCPAGFYADESQKNCLKCHPSCKKCVDEPEKCTVCKEGFSLARGSCIPDCEPGTYFDSELIRCGECHHTCGTCVGPGREECIHCAKNFHFHDWKCVPACGEGFYPEEMPGLPHKVCRRCDENCLSCAGSSRNCSRCKTGFTQLGTSCITNHTCSNADETFCEMVKSNRLCERKLFIQFCCRTCLLAG
modifications: C-terminal FLAG tag
